Series [1] addresses 46w60 nucleosome (recombinant human histone octamer on Widom 601 DNA with 46-bp and 60-bp flanks), Cy5-labelled (human) (UniProt P0C0S8). Description: MST; CHD4 titrated (1:2 serial dilution) into 25 nM Cy5-labelled 46w60 nucleosome; 50 mM HEPES pH 7.5, 50 mM NaCl, 3 mM MgCl2 dilution buffer, 100 ng/µL BSA, 0.5% glycerol; 10 min on ice; Monolith NT.115, 80% LED, 20% MST power; fit to a 1:1 binding isotherm.

For series [2], the system named is CHD4 C1bC2a (SANT-SLIDE) (Homo sapiens). Description: MST. As to conditions: 120 mM NaCl, 1 mM TCEP, no Mg2+; CHD4: 50 mM HEPES pH 7.5, NaCl up to 50 mM and MgCl2 up to 3 mM (from dilution buffer), 100 ng/uL BSA, 0.5% glycerol, 25 nM Cy5 substrate; C1bC2a: 20 mM HEPES ….
The test system of series [3] is CHD4 WT (Homo sapiens). Description: MST. As to conditions: 3 mM Mg2+ in dilution buffer; CHD4: 50 mM HEPES pH 7.5, NaCl up to 50 mM and MgCl2 up to 3 mM (from dilution buffer), 100 ng/uL BSA, 0.5% glycerol, 25 nM Cy5 substrate; C1bC2a: 20 mM HEPES ….
Series [4] deals with CHD4(1-1230) (Homo sapiens). Put plainly: MST. The settings on record: CHD4: 50 mM HEPES pH 7.5, NaCl up to 50 mM and MgCl2 up to 3 mM (from dilution buffer), 100 ng/uL BSA, 0.5% glycerol, 25 nM Cy5 substrate; C1bC2a: 20 mM HEPES ….
Series [5] deals with CHD4-IDR2-scram (Homo sapiens). Put plainly: MST. The settings on record: 3 mM Mg2+ in dilution buffer; CHD4: 50 mM HEPES pH 7.5, NaCl up to 50 mM and MgCl2 up to 3 mM (from dilution buffer), 100 ng/uL BSA, 0.5% glycerol, 25 nM Cy5 substrate; C1bC2a: 20 mM HEPES ….
Series [6] concerns CHD4(1-1810) (Homo sapiens). Put plainly: MST. The settings on record: CHD4: 50 mM HEPES pH 7.5, NaCl up to 50 mM and MgCl2 up to 3 mM (from dilution buffer), 100 ng/uL BSA, 0.5% glycerol, 25 nM Cy5 substrate; C1bC2a: 20 mM HEPES ….
The test system of series [7] is CHD4-IDR2-del- (Homo sapiens). Description: MST. The settings on record: 3 mM Mg2+ in dilution buffer; CHD4: 50 mM HEPES pH 7.5, NaCl up to 50 mM and MgCl2 up to 3 mM (from dilution buffer), 100 ng/uL BSA, 0.5% glycerol, 25 nM Cy5 substrate; C1bC2a: 20 mM HEPES ….
Series [8] concerns CHD4(1-1380) (Homo sapiens). Put plainly: MST. The settings on record: CHD4: 50 mM HEPES pH 7.5, NaCl up to 50 mM and MgCl2 up to 3 mM (from dilution buffer), 100 ng/uL BSA, 0.5% glycerol, 25 nM Cy5 substrate; C1bC2a: 20 mM HEPES ….

Chain of CHD4(1–1230) (Q14839 1-1230): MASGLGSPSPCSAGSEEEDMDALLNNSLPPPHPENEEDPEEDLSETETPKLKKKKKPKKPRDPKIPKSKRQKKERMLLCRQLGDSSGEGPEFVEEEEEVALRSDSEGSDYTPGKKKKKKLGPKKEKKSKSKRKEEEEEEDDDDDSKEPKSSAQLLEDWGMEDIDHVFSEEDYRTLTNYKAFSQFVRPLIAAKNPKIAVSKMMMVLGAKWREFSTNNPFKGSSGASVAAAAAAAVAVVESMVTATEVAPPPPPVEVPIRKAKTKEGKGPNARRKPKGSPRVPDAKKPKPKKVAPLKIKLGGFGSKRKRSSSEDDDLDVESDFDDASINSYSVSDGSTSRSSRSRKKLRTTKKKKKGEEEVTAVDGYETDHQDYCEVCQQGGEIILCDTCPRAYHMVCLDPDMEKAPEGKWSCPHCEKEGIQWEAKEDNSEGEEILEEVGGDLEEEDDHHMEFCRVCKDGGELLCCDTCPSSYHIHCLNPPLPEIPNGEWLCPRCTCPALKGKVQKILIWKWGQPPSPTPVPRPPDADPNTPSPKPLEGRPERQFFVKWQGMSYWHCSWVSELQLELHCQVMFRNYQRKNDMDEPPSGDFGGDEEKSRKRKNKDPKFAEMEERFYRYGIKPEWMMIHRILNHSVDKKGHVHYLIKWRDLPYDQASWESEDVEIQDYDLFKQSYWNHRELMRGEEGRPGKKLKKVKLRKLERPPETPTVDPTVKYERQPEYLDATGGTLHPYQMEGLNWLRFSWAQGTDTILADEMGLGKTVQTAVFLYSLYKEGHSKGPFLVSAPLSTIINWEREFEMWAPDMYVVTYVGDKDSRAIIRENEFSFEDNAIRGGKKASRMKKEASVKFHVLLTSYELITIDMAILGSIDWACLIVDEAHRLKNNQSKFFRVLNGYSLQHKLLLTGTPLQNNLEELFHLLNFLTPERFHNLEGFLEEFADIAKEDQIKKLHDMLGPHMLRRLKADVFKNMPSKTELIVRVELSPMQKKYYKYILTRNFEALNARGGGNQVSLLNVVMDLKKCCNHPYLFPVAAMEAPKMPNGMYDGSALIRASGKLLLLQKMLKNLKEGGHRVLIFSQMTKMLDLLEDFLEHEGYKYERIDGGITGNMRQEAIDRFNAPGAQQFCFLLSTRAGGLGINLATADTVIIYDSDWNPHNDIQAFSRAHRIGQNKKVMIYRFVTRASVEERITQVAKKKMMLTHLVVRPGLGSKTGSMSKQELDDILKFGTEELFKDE
Chain of CHD4(1–1540) (Q14839 1-1540): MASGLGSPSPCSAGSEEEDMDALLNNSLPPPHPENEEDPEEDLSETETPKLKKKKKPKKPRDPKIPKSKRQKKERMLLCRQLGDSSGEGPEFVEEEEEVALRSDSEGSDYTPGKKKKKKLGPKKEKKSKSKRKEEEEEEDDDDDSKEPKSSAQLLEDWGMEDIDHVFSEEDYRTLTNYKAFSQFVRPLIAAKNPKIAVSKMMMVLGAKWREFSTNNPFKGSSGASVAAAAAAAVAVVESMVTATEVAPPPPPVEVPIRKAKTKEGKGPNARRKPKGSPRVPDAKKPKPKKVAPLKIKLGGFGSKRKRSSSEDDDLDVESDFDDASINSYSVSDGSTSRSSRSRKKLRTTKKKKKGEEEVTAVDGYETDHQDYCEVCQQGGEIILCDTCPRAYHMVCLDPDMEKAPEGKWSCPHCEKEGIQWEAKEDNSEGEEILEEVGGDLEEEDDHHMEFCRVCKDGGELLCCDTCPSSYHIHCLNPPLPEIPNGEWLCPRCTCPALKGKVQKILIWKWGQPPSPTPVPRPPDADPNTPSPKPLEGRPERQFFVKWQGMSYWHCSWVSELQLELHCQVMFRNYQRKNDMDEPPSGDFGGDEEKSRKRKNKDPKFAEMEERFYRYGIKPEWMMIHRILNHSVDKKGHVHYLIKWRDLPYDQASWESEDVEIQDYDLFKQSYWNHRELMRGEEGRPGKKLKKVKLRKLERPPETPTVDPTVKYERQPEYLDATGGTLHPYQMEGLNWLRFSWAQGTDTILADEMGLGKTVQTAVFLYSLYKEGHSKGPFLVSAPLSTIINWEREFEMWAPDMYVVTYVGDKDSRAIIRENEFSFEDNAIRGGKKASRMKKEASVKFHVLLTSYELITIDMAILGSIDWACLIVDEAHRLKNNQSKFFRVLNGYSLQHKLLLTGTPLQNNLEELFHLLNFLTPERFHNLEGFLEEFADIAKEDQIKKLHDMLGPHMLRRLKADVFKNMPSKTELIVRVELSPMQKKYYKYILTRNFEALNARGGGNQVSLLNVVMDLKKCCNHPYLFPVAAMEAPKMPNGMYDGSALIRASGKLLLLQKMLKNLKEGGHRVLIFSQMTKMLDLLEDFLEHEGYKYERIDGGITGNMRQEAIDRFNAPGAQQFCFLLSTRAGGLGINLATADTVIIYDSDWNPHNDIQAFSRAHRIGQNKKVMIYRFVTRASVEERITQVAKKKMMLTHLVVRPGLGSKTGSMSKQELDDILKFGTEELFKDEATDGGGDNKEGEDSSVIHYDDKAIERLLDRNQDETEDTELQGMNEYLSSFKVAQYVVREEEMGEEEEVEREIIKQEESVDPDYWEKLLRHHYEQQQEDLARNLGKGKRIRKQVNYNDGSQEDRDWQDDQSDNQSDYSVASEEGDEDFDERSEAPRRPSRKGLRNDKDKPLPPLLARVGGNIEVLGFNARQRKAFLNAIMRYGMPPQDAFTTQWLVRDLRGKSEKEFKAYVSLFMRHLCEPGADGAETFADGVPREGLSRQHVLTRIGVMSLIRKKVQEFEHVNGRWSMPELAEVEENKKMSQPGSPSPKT
Chain of CHD4(355–1912) (Q14839 355-1912): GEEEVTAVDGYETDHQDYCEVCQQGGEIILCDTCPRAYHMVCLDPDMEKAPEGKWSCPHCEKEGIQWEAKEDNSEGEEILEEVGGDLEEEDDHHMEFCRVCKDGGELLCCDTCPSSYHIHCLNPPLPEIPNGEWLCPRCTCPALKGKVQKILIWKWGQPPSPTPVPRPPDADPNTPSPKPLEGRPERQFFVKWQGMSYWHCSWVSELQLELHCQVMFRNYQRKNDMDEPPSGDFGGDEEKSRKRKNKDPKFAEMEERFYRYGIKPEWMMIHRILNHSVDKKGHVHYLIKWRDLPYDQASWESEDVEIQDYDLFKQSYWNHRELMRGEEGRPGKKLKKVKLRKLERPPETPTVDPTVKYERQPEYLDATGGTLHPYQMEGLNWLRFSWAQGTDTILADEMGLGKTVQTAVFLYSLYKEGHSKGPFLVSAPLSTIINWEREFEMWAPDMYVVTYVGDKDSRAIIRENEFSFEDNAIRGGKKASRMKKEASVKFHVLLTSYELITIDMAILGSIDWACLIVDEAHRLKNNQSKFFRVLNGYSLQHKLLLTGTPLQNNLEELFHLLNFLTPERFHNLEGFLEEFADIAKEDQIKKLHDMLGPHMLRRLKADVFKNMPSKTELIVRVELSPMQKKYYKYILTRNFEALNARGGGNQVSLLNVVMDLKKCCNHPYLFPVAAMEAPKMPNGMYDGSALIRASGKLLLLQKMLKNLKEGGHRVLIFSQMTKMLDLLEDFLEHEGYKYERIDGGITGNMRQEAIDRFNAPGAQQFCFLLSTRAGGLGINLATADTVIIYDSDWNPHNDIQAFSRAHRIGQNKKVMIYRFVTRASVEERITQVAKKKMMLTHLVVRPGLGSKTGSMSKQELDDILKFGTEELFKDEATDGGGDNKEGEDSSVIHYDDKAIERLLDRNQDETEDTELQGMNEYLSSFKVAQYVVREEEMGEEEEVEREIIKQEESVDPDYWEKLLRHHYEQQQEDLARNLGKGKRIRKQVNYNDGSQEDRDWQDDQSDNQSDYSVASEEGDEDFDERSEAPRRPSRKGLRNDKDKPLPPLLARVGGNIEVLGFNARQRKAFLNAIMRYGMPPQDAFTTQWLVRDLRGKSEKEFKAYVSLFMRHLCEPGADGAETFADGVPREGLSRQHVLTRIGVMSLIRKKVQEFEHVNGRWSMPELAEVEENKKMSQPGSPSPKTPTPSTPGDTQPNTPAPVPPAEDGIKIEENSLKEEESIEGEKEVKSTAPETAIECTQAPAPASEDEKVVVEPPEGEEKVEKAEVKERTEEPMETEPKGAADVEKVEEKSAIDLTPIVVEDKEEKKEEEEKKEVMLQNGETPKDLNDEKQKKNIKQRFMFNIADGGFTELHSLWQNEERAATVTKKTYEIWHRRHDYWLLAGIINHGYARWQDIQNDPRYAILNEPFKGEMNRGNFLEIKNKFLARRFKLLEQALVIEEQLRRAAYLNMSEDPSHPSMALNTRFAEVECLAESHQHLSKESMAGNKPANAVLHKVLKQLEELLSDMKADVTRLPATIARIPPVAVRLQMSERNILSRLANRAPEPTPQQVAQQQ

Regarding “CHD4(1–1540) (from UniProt Q14839 1-1540) (domain or fragment)”, in series [1], the fold decrease in nucleosome binding against WT CHD4 is 4 fold. “CHD4-IDR2-del– (from UniProt Q14839 1-226; Q14839 363-1912) (enzyme)”: the Kd in series [1] is 20 nM.

Turning to “CHD4(1–1380) (from UniProt Q14839 1-1380) (domain or fragment)”, in series [1], the fold decrease in substrate binding against WT CHD4 was 10 fold. As for “CHD4(1–1230) (from UniProt Q14839 1-1230) (domain or fragment)”, in series [1], the fold decrease in affinity against WT CHD4 is 5 fold and the fold increase in binding against CHD4(1–1380) came out at 2 fold. In the case of 46w60 DNA (naked), the Kd in series [2] worked out at 10000 nM; in series [3] it was 350 nM.

Regarding “WT CHD4 (human chromodomain helicase DNA-binding protein 4, full length) (from UniProt Q14839 1-1912) (enzyme)”, the Kd in series [1] came out at 45 nM.

With 46w60 nucleosome, the Kd in series [4] amounted to 210 nM; in series [5], 100 nM; in series [6] it was 150 nM; in series [7], 20 nM; in series [8] it was 430 nM; in series [3], 45 nM. With “CHD4-IDR2-del+ (from UniProt Q14839 1-226; Q14839 363-1912) (enzyme)”, the fold decrease in affinity against WT CHD4 in series [1] is 5 fold. Regarding “CHD4(1–1810) (from UniProt Q14839 1-1810) (domain or fragment)”, in series [1], the fold decrease in affinity against WT CHD4 is 3 fold. As for “CHD4(355–1912) (from UniProt Q14839 355-1912) (domain or fragment)”, the fold decrease in substrate binding affinity against WT CHD4 in series [1] worked out at 3 fold.

As a reminder, the Kd is the equilibrium constant for the complex coming apart.

These data come from PMC9726900.
